Laboratory results as given in FireProtDB (doi:10.1021/bi702211j).
Several values for one entry are separate records, joined by “and”; a condition that tells them apart may be missing. Equal entries are not always repeated.

Details: Saccharomyces cerevisiae (strain ATCC 204508 / S288c), pH 7.5, 20 °C, Urea, HEPES 10 mM, NaCl 200 mM, reversible: Yes, whole UniProt chain shown

B1: Eukaryotic translation initiation factor 2 subunit alpha wild type, P20459 (protein)
chain: MSTSHCRFYENKYPEIDDIVMVNVQQIAEMGAYVKLLEYDNIEGMILLSELSRRRIRSIQKLIRVGKNDVAVVLRVDKEKGYIDLSKRRVSSEDIIKCEEKYQKSKTVHSILRYCAEKFQIPLEELYKTIAWPLSRKFGHAYEAFKLSIIDETVWEGIEPPSKDVLDELKNYISKRLTPQAVKIRADVEVSCFSYEGIDAIKDALKSAEDMSTEQMQVKVKLVAAPLYVLTTQALDKQKGIEQLESAIEKITEVITKYGGVCNITMPPKAVTATEDAELQALLESKELDNRSDSEDDEDESDDE
CD
  denaturant m value: 0.88 kcal/mol/M and 0.98 kcal/mol/M
  unfolding free energy: 2.45 kcal/mol and 2.95 kcal/mol and 4.61 kcal/mol
Fluorescence
  denaturant m value: 1.84 kcal/mol/M and 2.19 kcal/mol/M
  unfolding free energy: 5.17 kcal/mol and 6.66 kcal/mol and 5.45 kcal/mol
